Experimental data from US20190064166.

System: PAPPA2 (pappalysin-2), full-length urinary protein from vAKI patients

In the case of Cathepsin D, the “digestion of urinary PAPPA2, loss of PAPPA2 immunoreactivity on immunoblot” value is reported as “the addition of cathepsin D to vAKI samples digested PAPPA2”.
